Test results taken from patent US20260176358A1 (JIANGSU HENGRUI PHARMACEUTICALS, published 2026).

T1: human CGRP (human, UniProt P06881 83-119)
T1 peptide (looked up): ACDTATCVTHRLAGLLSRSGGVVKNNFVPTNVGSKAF

T2: rat CGRP (rat, UniProt P01256 83-119)
T2 peptide (looked up): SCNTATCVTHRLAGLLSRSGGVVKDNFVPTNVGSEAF


Assays:
human CGRP = target: T1, human CGRP; assay: ELISA, coated CGRP
Experimental: (§1) In this test example, the abilities of the chimeric antibodies and humanized antibodies of C1 #, C9 #, C21 #, and C28 #to bind to human CGRP and rat CGRP were assessed using ELISAs. Plates were coated with […] human CGRP and rat CGRP, respectively, and blocked, and the antibodies, serially diluted, were then added. The plates were incubated for 1 h and washed, and a horseradish peroxidase-labeled anti-human Fc secondary antibody was then added. After incubation, color development was performed. […] The plates were incubated for 1 h and washed, and the antibodies, serially diluted, were then added. The plates were incubated for 1 h and washed, and a horseradish peroxidase-labeled streptavidin secondary antibody was then added. After incubation, color development was performed.

rat CGRP = target: T2, rat CGRP; assay: ELISA, coated CGRP
Experimental: as §1

hPDL1 = hPDL1 (human, UniProt Q9NZQ7 19-238); assay: ELISA of Test Example 4 of WO2021139758
hPDL1, sequence (Q9NZQ7 19-238 limits assumed): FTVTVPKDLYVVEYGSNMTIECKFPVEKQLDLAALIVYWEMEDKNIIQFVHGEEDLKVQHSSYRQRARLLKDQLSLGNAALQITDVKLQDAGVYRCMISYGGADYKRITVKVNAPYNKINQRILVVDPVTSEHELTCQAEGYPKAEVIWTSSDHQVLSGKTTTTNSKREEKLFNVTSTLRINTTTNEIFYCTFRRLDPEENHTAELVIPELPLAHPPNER

hCTLA4 = hCTLA4 (human, UniProt P16410 36-161); assay: ELISA of Test Example 4 of WO2021139758
hCTLA4, sequence (P16410 36-161 limits assumed): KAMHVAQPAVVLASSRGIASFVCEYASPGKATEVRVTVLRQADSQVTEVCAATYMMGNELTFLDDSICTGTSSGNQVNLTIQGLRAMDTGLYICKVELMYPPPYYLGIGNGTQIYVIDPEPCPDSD

| EC50 (human CGRP) [nM] | EC50 (rat CGRP) [nM] | EC50 (hPDL1) [nM] | EC50 (hCTLA4) [nM] | Binder |
| --- | --- | --- | --- | --- |
| 1.3 | 3.57 |  |  | C9H7L1 (antibody, human IgG1, kappa, V domains shown) VH: EVQLVQSGAEVKKPGASVKVSCKASGYTFTDYYMNWVRQAPGQRLEWMGVINPYTGRTTYNRKFKGRVTITVDKSASTAYMELSSLRSEDTAVYYCASLLIRPHYFDYWGQGTTVTVSS VL: DIQMTQSPSSLSASVGDRVTITCKASQNVGTNVAWYQQKPGKSPKALIYSASYRYSGVPSRFSGSGSGTDFTLTISSLQPEDVATYHCQQYNFYPYTFGQGTKLEIKR |
| 1.34 | 6.28 |  |  | C28H1L1 (antibody, human IgG1, kappa, V domains shown) VH: EVQLVQSGAEVKKPGASVKVSCKASGYTFTDYYMNWVRQAPGQRLEWMGDINPNNVVTTYNQKFKGRVTITVDKSASTAYMELSSLRSEDTAVYYCASIIIVPDYFDYWGQGTTVTVSS VL: DIQMTQSPSSVSASVGDRVTITCKASQNVGSNVAWYQQKPGKSPKALIYSASYRYSGVPSRFSGSGSGTDFTLTISSLQPEDFATYYCQQYNSYPYTFGGGTKVEIKR |
|  |  | 1.6 | 16.5 | PL-1 (bispecific antibody) chain 1: not shown chain 2: DIVLTQSPASLAVSPGQRATITCRASESVSIHGTHLMHWYQQKPGQPPKLLIYAASKLESGVPARFSGSGSGTDFTLTINPVEAEDTANYYCQQSFEDPLTFGQGTKLEIKGGGGSGIPPKIECLPIDISIDEGKVLTVASAFTGEPTPEVTWSTGGRKIHSQEQGRFHIENTDDLTTLIIKDVQKQDGGLYTLTLRNEFGSDSATVNIHIRSI chain 3: not shown chain 4: not shown |
|  |  | 0.5 | 8 | PL-2 (bispecific antibody) chain 1: not shown chain 2: DIVLTQSPASLAVSPGQRATITCRASESVSIHGTHLMHWYQQKPGQPPKLLIYAASKLESGVPARFSGSGSGTDFTLTINPVEAEDTANYYCQQSFEDPLTFGQGTKLEIKGGGGSGIPPKIECLPIDISIDEGKVLTVASAFTGEPTPEVTWSTGGRKIHSQEQGRFHIENTDDSTTLTIKDVQKQDGGLYTLTLRNEFGSDSATVNIHIRSI chain 3: not shown chain 4: not shown |
|  |  | 0.6 | 7.9 | PL-3 (bispecific antibody) chain 1: not shown chain 2: DIVLTQSPASLAVSPGQRATITCRASESVSIHGTHLMHWYQQKPGQPPKLLIYAASKLESGVPARFSGSGSGTDFTLTINPVEAEDTANYYCQQSFEDPLTFGQGTKLEIKGGGGSGIPPKIECLPIDISIDEGKCLTVASAFTGEPTPEVTWSTGGRKIHSQEQGRFHIENTDDSTTLTIKDVQKQDGGLYTLTLRNEFGSDSATVNIHIRSI chain 3: not shown chain 4: not shown |
|  |  | 0.7 | 6.5 | PL-4 (bispecific antibody) chain 1: not shown chain 2: DIVLTQSPASLAVSPGQRATITCRASESVSIHGTHLMHWYQQKPGQPPKLLIYAASKLESGVPARFSGSGSGTDFTLTINPVEAEDTANYYCQQSFEDPLTFGQGTKLEIKGGGGSGIPPKIECLPIDISIDEGKVLTVASCFTGEPTPEVTWSTGGRKIHSQEQGRFHIENTDDSTTLTIKDVQKQDGGLYTLTLRNEFGSDSATVNIHIRSI chain 3: not shown chain 4: not shown |
|  |  | 0.7 | 6.7 | PL-5 (bispecific antibody) chain 1: not shown chain 2: DIVLTQSPASLAVSPGQRATITCRASESVSIHGTHLMHWYQQKPGQPPKLLIYAASKLESGVPARFSGSGSGTDFTLTINPVEAEDTANYYCQQSFEDPLTFGQGTKLEIKGGGGSGIPPKIECLPIDISIDEGKVLTVASAFTGEPTPEVTWSTGGRKIHSQEQGRFHIENTDDSTTLTIKDVQKQDGGLYTLTLRNEFGSDSATVNIHIRSI chain 3: not shown chain 4: not shown |
|  |  | 0.8 | 5.3 | PL-6 (bispecific antibody) chain 1: not shown chain 2: DIVLTQSPASLAVSPGQRATITCRASESVSIHGTHLMHWYQQKPGQPPKLLIYAASKLESGVPARFSGSGSGTDFTLTINPVEAEDTANYYCQQSFEDPLTFGQGTKLEIKGGGGSGIPPKIECLPIDISIDEGKCLTVASAFTGEPTPEVTWSTGGRKIHSQEQGRFHIENTDDSTTLTIKDVQKQDGGLYTLTLRNEFGSDSATVNIHIRSI chain 3: not shown chain 4: not shown |
|  |  | 0.5 | 7.3 | PL-7 (bispecific antibody) chain 1: not shown chain 2: DIVLTQSPASLAVSPGQRATITCRASESVSIHGTHLMHWYQQKPGQPPKLLIYAASKLESGVPARFSGSGSGTDFTLTINPVEAEDTANYYCQQSFEDPLTFGQGTKLEIKGGGGSGIPPKIECLPIDISIDEGKVLTVASCFTGEPTPEVTWSTGGRKIHSQEQGRFHIENTDDSTTLTIKDVQKQDGGLYTLTLRNEFGSDSATVNIHIRSI chain 3: not shown chain 4: not shown |
|  |  | 1.4 | 14.5 | PL-8 (bispecific antibody) chain 1: not shown chain 2: DIVLTQSPASLAVSPGQRATITCRASESVSIHGTHLMHWYQQKPGQPPKLLIYAASKLESGVPARFSGSGSGTDFTLTINPVEAEDTANYYCQQSFEDPLTFGQGTKLEIKGGGGSGIPPKIECLPIDISIDEGKVLTVASAFTGEPTPEVTWSTGGRKIHSQEQGRFHIENTDDSTTLTIKDVQKQDGGLYTLTLRNEFGSDSATVNIHIRSI chain 3: not shown chain 4: not shown |
|  |  | 0.6 | 5.5 | PL-9 (bispecific antibody) chain 1: not shown chain 2: DIVLTQSPASLAVSPGQRATITCRASESVSIHGTHLMHWYQQKPGQPPKLLIYAASKLESGVPARFSGSGSGTDFTLTINPVEAEDTANYYCQQSFEDPLTFGQGTKLEIKGGGGSGIPPKIECLPIDISIDEGKCLTVASAFTGEPTPEVTWSTGGRKIHSQEQGRFHIENTDDSTTLTIKDVQKQDGGLYTLTLRNEFGSDSATVNIHIRSI chain 3: not shown chain 4: not shown |
|  |  | 0.6 | 6.9 | PL-10 (bispecific antibody) chain 1: not shown chain 2: DIVLTQSPASLAVSPGQRATITCRASESVSIHGTHLMHWYQQKPGQPPKLLIYAASKLESGVPARFSGSGSGTDFTLTINPVEAEDTANYYCQQSFEDPLTFGQGTKLEIKGGGGSGIPPKIECLPIDISIDEGKVLTVASCFTGEPTPEVTWSTGGRKIHSQEQGRFHIENTDDSTTLTIKDVQKQDGGLYTLTLRNEFGSDSATVNIHIRSI chain 3: not shown chain 4: not shown |
|  |  | 0.6 | 5.6 | PL-11 (bispecific antibody) chain 1: not shown chain 2: DIVLTQSPASLAVSPGQRATITCRASESVSIHGTHLMHWYQQKPGQPPKLLIYAASKLESGVPARFSGSGSGTDFTLTINPVEAEDTANYYCQQSFEDPLTFGQGTKLEIKRTVASGIPPKIECLPIDISIDEGKVLTVASAFTGEPTPEVTWSTGGRKIHSQEQGRFHIENTDDSTTLTIKDVQKQDGGLYTLTLRNEFGSDSATVNIHIRSI chain 3: not shown chain 4: not shown |
|  |  | 0.5 | 8 | PL-12 (bispecific antibody) chain 1: not shown chain 2: DIVLTQSPASLAVSPGQRATITCRASESVSIHGTHLMHWYQQKPGQPPKLLIYAASKLESGVPARFSGSGSGTDFTLTINPVEAEDTANYYCQQSFEDPLTFGQGTKLEIKRTVASGIPPKIECLPIDISIDEGKCLTVASAFTGEPTPEVTWSTGGRKIHSQEQGRFHIENTDDSTTLTIKDVQKQDGGLYTLTLRNEFGSDSATVNIHIRSI chain 3: not shown chain 4: not shown |
|  |  | 0.5 | 4.4 | PL-13 (bispecific antibody) chain 1: not shown chain 2: DIVLTQSPASLAVSPGQRATITCRASESVSIHGTHLMHWYQQKPGQPPKLLIYAASKLESGVPARFSGSGSGTDFTLTINPVEAEDTANYYCQQSFEDPLTFGQGTKLEIKRTVASGIPPKIECLPIDISIDEGKVLTVASCFTGEPTPEVTWSTGGRKIHSQEQGRFHIENTDDSTTLTIKDVQKQDGGLYTLTLRNEFGSDSATVNIHIRSI chain 3: not shown chain 4: not shown |
|  |  | 1.3 | 6 | PL-14 (bispecific antibody) chain 1: not shown chain 2: DIVLTQSPASLAVSPGQRATITCRASESVSIHGTHLMHWYQQKPGQPPKLLIYAASKLESGVPARFSGSGSGTDFTLTINPVEAEDTANYYCQQSFEDPLTFGQGTKLEIKRTVASGIPPKIECLPIDISIDEGKVLTVASAFTGEPTPEVTWSTGGRKIHSQEQGRFHIENTDDSTTLTIKDVQKQDGGLYTLTLRNEFGSDSATVNIHIRSI chain 3: not shown chain 4: not shown |
|  |  | 1.4 | 3.2 | PL-15 (bispecific antibody) chain 1: not shown chain 2: DIVLTQSPASLAVSPGQRATITCRASESVSIHGTHLMHWYQQKPGQPPKLLIYAASKLESGVPARFSGSGSGTDFTLTINPVEAEDTANYYCQQSFEDPLTFGQGTKLEIKRTVASGIPPKIECLPIDISIDEGKCLTVASAFTGEPTPEVTWSTGGRKIHSQEQGRFHIENTDDSTTLTIKDVQKQDGGLYTLTLRNEFGSDSATVNIHIRSI chain 3: not shown chain 4: not shown |
|  |  | 1.4 | 6.2 | PL-17 (bispecific antibody) chain 1: not shown chain 2: DIVLTQSPASLAVSPGQRATITCRASESVSIHGTHLMHWYQQKPGQPPKLLIYAASKLESGVPARFSGSGSGTDFTLTINPVEAEDTANYYCQQSFEDPLTFGQGTKLEIKRTVASGIPPKIECLPIDISIDEGKVLTVASAFTGEPTPEVTWSTGGRKIHSQEQGRFHIENTDDSTTLTIKDVQKQDGGLYTLTLRNEFGSDSATVNIHIRSI chain 3: not shown chain 4: not shown |
|  |  | 1.6 | 6.7 | PL-18 (bispecific antibody) chain 1: not shown chain 2: DIVLTQSPASLAVSPGQRATITCRASESVSIHGTHLMHWYQQKPGQPPKLLIYAASKLESGVPARFSGSGSGTDFTLTINPVEAEDTANYYCQQSFEDPLTFGQGTKLEIKRTVASGIPPKIECLPIDISIDEGKCLTVASAFTGEPTPEVTWSTGGRKIHSQEQGRFHIENTDDSTTLTIKDVQKQDGGLYTLTLRNEFGSDSATVNIHIRSI chain 3: not shown chain 4: not shown |
|  |  | 1.6 | 6.5 | PL-19 (bispecific antibody) chain 1: not shown chain 2: DIVLTQSPASLAVSPGQRATITCRASESVSIHGTHLMHWYQQKPGQPPKLLIYAASKLESGVPARFSGSGSGTDFTLTINPVEAEDTANYYCQQSFEDPLTFGQGTKLEIKRTVASGIPPKIECLPIDISIDEGKVLTVASCFTGEPTPEVTWSTGGRKIHSQEQGRFHIENTDDSTTLTIKDVQKQDGGLYTLTLRNEFGSDSATVNIHIRSI chain 3: not shown chain 4: not shown |
